Experimental findings from publication PMC8085152 (Journal of molecular biology, 2021) are described below.

Assay [1] concerns the target α-synuclein (αS) monomers, full-length 1-140 (UniProt P37840). The experiment in a line: co-sedimentation.
The target of assay [2] is TDP-43 PrLD sonicated fibrils (UniProt Q13148 267-414). The experiment in a line: ThT fluorescence seeding kinetics.

Take “TDP-43 PrLD (residues 267-414) monomers, hexahistidine-TEV fusion construct (from UniProt Q13148 267-414) (domain or fragment)”: in assay [1], the stoichiometry N (TDP-43 PrLD per αS) turned out to be 1.2.

B1: TDP-43 PrLD (residues 267-414) monomers, hexahistidine-TEV fusion construct (domain or fragment, UniProt Q13148 267-414, looked up)
chain: NRQLERSGRFGGNPGGFGNQGGFGNSRGGGAGLGNNQGSNMGGGMNFGAFSINPAMMAAAQAALQSSWGMMGMLASQQNQSGPSGNNQNQGNMQREPNQAFGSGNNSYSGSNSGAAIGWGSASNAGSGSGFNGGFGSSMDSKSSGWGM
Regarding B1, the binding result in assay [2] is “binds”.
